± gives the uncertainty stated by the source.
Test: protein stability index of a GFP-peptide fusion (yeast GPS) (PSI 1-4); higher = more stable; sorted into four equal gates, so the index is relative within each strain
Procedure, shortened: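 The protein stability index combines read frequencies across sorting gates, each weighted by its gate number and then summed. To obtain those frequencies, a pooled yeast library of GFP fusions to tiled 17-residue yeast protein peptides, on a plasmid also expressing Cherry, was grown to mid-log phase in leucine-free medium. The cells were sorted into four equal gates by GFP/Cherry ratio before plasmid amplification by PCR and Illumina sequencing.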

| Sequence | protein stability index (doa10∆) | protein stability index (pdr5∆) | protein stability index (ubr1∆) | protein stability index (san1∆) |
| --- | --- | --- | --- | --- |
| TFLLNNKNIDIGLLNKS [RPN2] | 3.38 ± 0.21 | 3.11 ± 0.27 | 2.61 ± 0.11 | – |
| TFLSEWGMEPLEDYVPH [RPB2] | 3.17 ± 0.1 | 3.71 ± 0.23 | 2.81 ± 0.14 | 3.13 ± 0.12 |
| TFNNQDKGLLPYAIMET [RPO31] | 1.99 ± 0.067 | 2.46 ± 0.085 | 1.48 ± 0.058 | 1.44 ± 0.075 |
| TFTFTAHMGVLLVLLQD [SWP82] | 1.71 ± 0.044 | 1.32 ± 0.044 | 1.42 ± 0.035 | 1.41 ± 0.087 |
| TFVVEQLIKQSIKNNVA [SNU114] | – | – | 2.38 ± 0.27 | – |
| TGAGAFGTGQSTFGFNN [YJL041W/NSP1] | 2.72 ± 0.055 | 2.57 ± 0.064 | 2.85 ± 0.046 | 3.02 ± 0.058 |
| TGEFDFEAAVKMSDGFN [RPT4] | 2.91 ± 0.15 | 3.33 ± 0.14 | 3.31 ± 0.16 | 2.57 ± 0.18 |
| TGHPKGAAGAWMMNGAL [FAS2] | 1.98 ± 0.069 | 1.5 ± 0.052 | 1.66 ± 0.052 | 1.43 ± 0.12 |
| TGKTLLAKAVAATIGAN [RPT4] | 1.46 ± 0.074 | 1.75 ± 0.084 | 2.08 ± 0.13 | 1.68 ± 0.16 |
| TGKTLLARACAAQTNAT [RPT5] | 2.72 ± 0.13 | 2.92 ± 0.089 | 2.61 ± 0.29 | 2.9 ± 0.096 |
| TGKYGVRYGSSLRRQVK [RPL43A] | 3 ± 0.079 | 3.23 ± 0.066 | 3.06 ± 0.046 | 3.42 ± 0.057 |
| TGMSSMSPFLRKVVKPS [SRB4] | 2.76 ± 0.075 | 2.76 ± 0.088 | 2.48 ± 0.049 | 1.97 ± 0.12 |
| TGSLMGGNSTQNTSNMN [YGR119C/NUP57] | 3.19 ± 0.076 | 3.24 ± 0.064 | 3.18 ± 0.048 | 3.07 ± 0.052 |
| TGYDLSNSVFSPDGRNF [PRE10] | 2.79 ± 0.072 | 2.88 ± 0.089 | 2.97 ± 0.087 | 2.52 ± 0.13 |
| THEDLPKEVDGLEVGPV [IRR1] | 3.21 ± 0.091 | 3.35 ± 0.11 | 3.18 ± 0.086 | 3.06 ± 0.094 |
| THPKDTFYITREKYNMK [ARP9] | 2.98 ± 0.12 | 3.09 ± 0.083 | 3.31 ± 0.064 | 3.07 ± 0.06 |
| TIAKQVLNGQKIVVVRA [RPL16B] | 3.04 ± 0.19 | 2.9 ± 0.13 | 2.6 ± 0.14 | – |
| TIFKYLTDKDAFETHYR [CDC53] | 3.27 ± 0.11 | 3.12 ± 0.086 | 2.98 ± 0.061 | 3.09 ± 0.049 |
| TIISPHKDIPEEDFYTV [DSN1] | 3.21 ± 0.095 | 3.23 ± 0.15 | 3.19 ± 0.054 | 2.44 ± 0.28 |
| TIKILPENTAMFNPLHE [YMR129W/POM152] | 2.42 ± 0.064 | 2.36 ± 0.053 | 2.5 ± 0.05 | 2.36 ± 0.058 |
| TIRLWECGTGTTIHTFN [RPN14] | 2.11 ± 0.18 | 2.4 ± 0.11 | 1.99 ± 0.13 | 2.21 ± 0.12 |
| TIRYLMQKQHEMKTQAA [SNF6] | 2.83 ± 0.049 | 2.98 ± 0.051 | 2.9 ± 0.032 | 2.99 ± 0.046 |
| TISVPQIRDVMERFSVL [RRP6] | 2.58 ± 0.094 | 2.7 ± 0.097 | 2.68 ± 0.13 | 2.5 ± 0.12 |
| TITKRNGAFQNSSNLSY [RRP4] | 3.04 ± 0.054 | 3.02 ± 0.057 | 3.11 ± 0.042 | 3.1 ± 0.04 |
| TKDIFPLQNIHVRKVKL [RPS1A] | 2.4 ± 0.084 | 2.81 ± 0.097 | 2.84 ± 0.09 | 2.6 ± 0.072 |
| TKFKGGKRQLMKAVGEY [SEC65] | 2.88 ± 0.098 | 3.11 ± 0.11 | 2.46 ± 0.088 | 3.26 ± 0.056 |
| TKISTLAVKVHGGSRYA [QCR2] | 1.34 ± 0.12 | 1.64 ± 0.21 | 1.41 ± 0.17 | 1.18 ± 0.29 |

| Sequence | protein stability index (doa10∆) | protein stability index (pdr5∆) | protein stability index (ubr1∆) | protein stability index (san1∆) |
| --- | --- | --- | --- | --- |
| TKLNLHCVIEDDESEQI [RRI1] | 2.2 ± 0.29 | 3.16 ± 0.17 | 2.65 ± 0.15 | 2.69 ± 0.12 |
| TKLTTCKRELAFVKQKN [YIL149C/MLP2] | 1.84 ± 0.078 | 1.81 ± 0.086 | 1.48 ± 0.071 | 1.54 ± 0.11 |
| TKNDAGSKQILKTEAAN [BRR2] | 2.85 ± 0.055 | 2.95 ± 0.054 | 3.04 ± 0.055 | 2.93 ± 0.039 |
| TKPAIRRLARRGGVKRI [HHF1] | 3.04 ± 0.13 | 3.12 ± 0.16 | 3.45 ± 0.1 | 3 ± 0.16 |
| TKPSETPATIVKKPTFT [YOR098C/NUP1] | 2.91 ± 0.05 | 3.08 ± 0.057 | 3.04 ± 0.054 | 3.09 ± 0.043 |
| TKSKNKTLIGLQGIVIW [POP4] | 2.93 ± 0.05 | 2.76 ± 0.051 | 2.73 ± 0.034 | 2.76 ± 0.044 |
| TKSSKEFFNTLRKSRET [RRI2] | 2.63 ± 0.15 | 3.42 ± 0.13 | 2.92 ± 0.11 | 3.06 ± 0.074 |
| TKVNNQLIKVAVHNGDR [RPL9B] | 1.92 ± 0.074 | 1.52 ± 0.06 | 2.4 ± 0.029 | 1.78 ± 0.086 |
| TLASLIRYNSVEIQEVP [RPC82] | 2.62 ± 0.073 | 2.59 ± 0.051 | 2.54 ± 0.077 | 2.48 ± 0.12 |
| TLDKKDSIPLRITNSFY [RPN9] | 2.52 ± 0.13 | 2.81 ± 0.11 | 2.92 ± 0.13 | 2.9 ± 0.096 |
| TLDVEAFKSVVSTETFE [RPL27A] | 2.4 ± 0.069 | 2.74 ± 0.051 | 2.46 ± 0.053 | 2.59 ± 0.051 |
| TLEDALRRIITDLNQDS [GRR1] | 2.01 ± 0.074 | 1.86 ± 0.063 | 2.4 ± 0.053 | 2.1 ± 0.067 |
| TLEDKFLLLAVNKYGLR [ISW2] | 2.31 ± 0.058 | 2.15 ± 0.058 | 2.29 ± 0.049 | 1.9 ± 0.11 |
| TLESLENLVVADLESFA [COR1] | 2.47 ± 0.066 | 2.67 ± 0.063 | 2.3 ± 0.043 | 2.44 ± 0.065 |
| TLGNLIRAELLNDRKVL [RPB11] | 3.06 ± 0.17 | 2.74 ± 0.25 | 2.87 ± 0.23 | 3.08 ± 0.15 |
| TLGNQMLSAHNIIESIA [YJR042W/NUP85] | 2.33 ± 0.097 | 2.58 ± 0.073 | 2.79 ± 0.072 | 2.53 ± 0.14 |
| TLLSPKDNGMLIIDGQI [RPO21] | 2.59 ± 0.076 | 2.29 ± 0.078 | 1.78 ± 0.058 | 2.81 ± 0.074 |
| TLNPDLFLYKELVKAHL [RPC82] | 2.71 ± 0.079 | 2.87 ± 0.074 | 2.42 ± 0.055 | 2.95 ± 0.053 |
| TLPSVGHTLINNYKDLL [RPP0] | – | 3.34 ± 0.21 | – | – |
| TLRKELEQIQVQLKDAN [YIL149C/MLP2] | 2.51 ± 0.1 | 2.96 ± 0.093 | 2.24 ± 0.051 | 2.67 ± 0.096 |
| TLSHLRRTNTPIGRDGK [RPB2] | 2.14 ± 0.043 | 2.26 ± 0.038 | 2.08 ± 0.036 | 2.24 ± 0.057 |
| TLVEIFLERKCVHMVYE [SSN3] | 1.35 ± 0.063 | 1.7 ± 0.071 | 1.75 ± 0.048 | 1.52 ± 0.11 |
| TLVSTDNYFNLQLNEAE [SMX3] | 2.94 ± 0.069 | 2.91 ± 0.059 | 2.79 ± 0.048 | 2.82 ± 0.053 |
| TMGGNAELELVDSLDPF [SMC4] | 3.25 ± 0.1 | 3.17 ± 0.086 | 3.15 ± 0.084 | 3.39 ± 0.074 |
| TMGMRALLKLSVKLKQK [DIS3] | 1.28 ± 0.059 | 1.59 ± 0.063 | 1.33 ± 0.07 | 1.21 ± 0.072 |
| TMQPPYIQERLKSLNDI [MED11] | 2.89 ± 0.086 | 2.86 ± 0.12 | 2.82 ± 0.056 | 3.13 ± 0.068 |
| TNFEILNEMLNTRKNMS [DIS3] | 2.97 ± 0.059 | 3.07 ± 0.091 | 3.09 ± 0.041 | 3.06 ± 0.054 |
